Source: patent US20180100158A1

Target: HLA-E expressed on the surface of HeLa cells (human (endogenous on HeLa cells)) (UniProt P13747)
Assay: cell-based or functional assay

UniProt P13747, sequence (P13747 22-358): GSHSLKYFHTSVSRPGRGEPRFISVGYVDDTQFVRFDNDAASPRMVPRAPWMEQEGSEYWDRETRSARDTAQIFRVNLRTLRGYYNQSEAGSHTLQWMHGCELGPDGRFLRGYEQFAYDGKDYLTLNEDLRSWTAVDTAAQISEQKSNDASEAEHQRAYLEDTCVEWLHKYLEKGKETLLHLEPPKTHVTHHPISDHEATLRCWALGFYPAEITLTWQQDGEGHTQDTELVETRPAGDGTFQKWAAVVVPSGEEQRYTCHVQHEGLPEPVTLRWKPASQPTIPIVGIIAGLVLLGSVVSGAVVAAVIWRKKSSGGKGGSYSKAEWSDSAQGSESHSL

“NKG2A receptor on the surface of NK-92 cells (from UniProt P26715 1-233)” was tested. Which percentage of lysis of the target HeLa cells (Calcein release), NKG2A-KO against wild-type NK-92 effector cells (% more target HeLa cells killed) did it give?
Its percentage of lysis of the target HeLa cells (Calcein release), NKG2A-KO against wild-type NK-92 effector cells (% more target HeLa cells killed) is 10 to 15.
